Experimental data: patent US20060142548A1, “Methods of identifying and designing cell surface receptor inhibitors” (priority 2003, published 2006)

Legend:
physiologic ligand = assay: ligand binding to membrane-bound integrin
αA domain from CD11a = target: T1, αA domain from CD11a (Homo sapiens, UniProt P20701); settings: binding at the strand-F/α7 interface; reference 84; cited from earlier work
T1 sequence (P20701 156-327 limits assumed): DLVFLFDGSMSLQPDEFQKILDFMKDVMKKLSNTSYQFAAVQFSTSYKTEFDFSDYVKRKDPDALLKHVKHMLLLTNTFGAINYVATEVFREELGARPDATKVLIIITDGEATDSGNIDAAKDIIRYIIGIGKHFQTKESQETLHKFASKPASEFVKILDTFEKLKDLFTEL

| fold increase of binding (physiologic ligand) | Compound | effect of binding on integrin activation state (αA domain from CD11a) |
| --- | --- | --- |
| 1.5 to 2 fold | αVβ3 integrin mutant D^126D^127/A^126A^127, membrane-bound (from UniProt P06756 31-1048; P05106 27-788) (receptor) | – |
| – | CC[C@H](C)C(=O)O[C@H]1C[C@@H](C)C=C2C=C[C@H](C)[C@H](CC[C@@H]3C[C@@H](O)CC(=O)O3)[C@H]21 [lovastatin] | locks this integrin in the inactive state |
